# Measurements as given in the DeepSol protein solubility set.
# Assay: soluble on expression in E. coli; label from the status in PepcDB or PDB records
row,Sequence,soluble on expression in E. coli
1,EETLLNTKLETADLKWVTFPQVDGQWEELSGLDEEQHSVRTYEVCDVQRAPGQAHWLRTGWVPRRGAVHVYATLRFTMLECLSLPRAGRSCKETFTVFYYESDADTATALTPAWMENPYIKVDTVAAEHLTRKRPGAEATGKVNVKTLRLGPLSKAGFYLAFQDQGACMALLSLHLFYKK,soluble
2,EFKHILVGVDDSDDAQLAFRYAINRAKSDGAKLTIVSILEQDNMNVYEAMSKDFVHGQRKDLEEHVQQYQKLARDFGVTDVNAVVDEGDPGETIVKTVIPALKPDLLVIGSVAKHGVRKYFGSQAAYMAKHAPISVLVIR,not soluble
3,EFSSEELIRMSNYLNELLVGVPVGQVRTRILEEMRNEKVLYDKLLARALQLSEQSLNDDGAQIFIEGQTNILEQPEFADSRRMRDLFRAFEEKNQLVGLLDRCLNAQGVQIFIGAETHLSQMEGLSIITSTYLTGKNTLGVLGVIGPTRMGYAKVIPIVDYTAKLVSRLLEG,not soluble
4,EGAALTEKTDIFESGRNGKPNKDGIKSYRIPALLKTDKGTLIAGADERRLHSSDWGDIGMVIRRSEDNGKTWGDRVTITNLRDNPKASDPSIGSPVNIDMVLVQDPETKRIFSIYDMFPEGKGIFGMSSQKEEAYKKIDGKTYQILYREGEKGAYTIRENGTVYTPDGKATDYRVVVDPVKPAYSDKGDLYKGNQLLGNIYFTTNKTSPFRIAKDSYLWMSYSDDDGKTWSAPQDITPMVKADWMKFLGVGPGTGIVLRNGPHKGRILIPVYTTNNVSHLNGSQSSRIIYSDDHGKTWHAGEAVNDNRQVDGQKIHSSTMNNRRAQNTESTVVQLNNGDVKLFMRGLTGDLQVATSKDGGVTWEKDIKRYPQVKDVYVQMSAIHTMHEGKEYIILSNAGGPKRENGMVHLARVEENGELTWLKHNPIQKGEFAYNSLQELGNGEYGILYEHTEKGQNAYTLSFRKFNWDFLSKDLISPTEAKVKRTREMGKGVIGLEFDSEVLV,soluble
5,EGGDFVVGMVTDSGDIDDKSFNQQVWEGISRFAQENNAKCKYVTASTDAEYVPSLSAFADENMGLVVACGSFLVEAVIETSARFPKQKFLVIDAVVQDRDNVVSAVFGQNEGSFLVGVAAALKAKEAGKSAVGFIVGMELGMMPLFEAGFEAGVKAVDPDIQVVVEVANTFSDPQKGQALAAKLYDSGVNVIFQVAGGTGNGVIKEARDRRLNGQDVWVIGVDRDQYMDGVYDGSKSVVLTSMVKRADVAAERISKMAYDGSFPGGQSIMFGLEDKAVGIPEENPNLSSAVMEKIRSFEEKIVSKEIVVPVRSARMMN,soluble
6,EHVEMLSAAGATVVAFDPLSEQLPQCDGLIIPGGFPEEHCDVLEQRADLKQQVCDVIAQGIPVHAECAGLLWLLSTLDGRPMLDVIPTHGAMGRRLTLGYRDAVVVHDSVIYRAGERVTGHEFHHTAIADSVVPGWDSAWGWRAWDGSPKVEGFVSGNVHASYLHVHPAAVPAAVRRFVEACAR,not soluble
7,EKKEQKEKEKKEQEIKKKFKLTGPIQVIHLAKACCDVKGGKNELSFKQGEQIEIIRITDNPEGKWLGRTARGSYGYIKTTAVEIDYDSLKLKKDLE,soluble
8,ELPKKRELCKFYITGFCARAENCPYMHGDFPCKLYHTTGNCINGDDCMFSHDPLTEETRELLDKMLADDAEAGAEDEKEVEELKK,soluble
9,ELVMTQSPKFMSTSVGDRVSVTCKASQNVGTHVAWYQQKPGQSPKTLIYSASYRYSGVPDRFTGSGSGTDFTLTIRDVQSEDAAEYFCQQYNLFPVTFGGGTKLEIKRTVAAPSVFIFPPSDEQLKSGTASVVCLLNNFYPREAAVAWKVDNALQSGNSQESVTEQDSADSTYSLSSTLTLSKADYEKHKVYACEVTHQGLSSPVTKSFNRGE,soluble
10,EMETYVNKLHEGSTYTAAVQYNVLEKDDDPASLTIWVPMFQSSMPADLLIKELANVNILVKQISTPKGPSLRVMINSRSAVLAQMPSKFTICANVSLDDRSKLAYDVTTPCEIKACSLTCLKSKNMLTTVKDLTMKTLNPTHDIIALCEFENIVTSKKVIIPTYLRSISVRNKDLNTLENITTTEFKNAITNAKIIPYSGLLLVITVTDNKGAFKYIKPQSQFIVDLGAYLEKESIYYVTTNWKHTATRFAIKPRED,soluble
11,ENEIERPEDMRVRTLANKSKMKVSIVQQIDRKVALDDIAVSHGLDFPELLSEVETIVYSGTRINIDYFINEVMDEDHLEDIFEYFKESTTDSLEEAMQELGKDYSEEEIRLVRIKFLSEMAN,soluble
12,ENLKLGFLVAQPEEPASQTQWKFADKAGKDLGFEVIKIAVPDGEKTLNAIDSLAASGAKGFVISTPDPKLGSAIVAKARGYDMKVIAVDNQFVNAKGKPMDTVPLVMEAATKIGERQGQELYKEMQKRGWDVKESAVMAITANELDTARRRTTGSMDALKAAGFPEKQIYQVPTKSEDIPGAFDAANSMLVQHPEVKHWLIVGMNDSTVLGGVRATEGQGFKAADIIGIGINGVDAVSELSKAQATGFYGSLLPSPDVHGYKSSEMLYNWVAKDVEPPKFTEVTDVVLITRDNFKEECEKKGLGGK,soluble
13,ENVYGYLMKYTNLVTGWQYRFFVLNNEAGLLEYFVNEQSRNQKPRGTLQLAGAVISPSDEDSHTFTVNAASGEQYKLRATDAKERQHWVSRLQICTQHHTEAIGKNN,soluble
14,ERVPKTVDVETIRSRIAQIDGVGGVHDVHVWSIDGQQDIATVHVVVDENVNVKDCTTLDRIQKVFHDAGIDHVTVQLEHDTHMSHELPCQH,soluble
15,EVKVEESGGGLVQPGGSMKLSCVASGFTFSNYWMEWVRQSPEKGLEWVAEIRLKSNNYATHYAESVKGRFTISRDDSKSSVYLQMNNLRAEDTGIYYCTRGGAVGAMDYWGQGTSVTVSSATTTAPSVYPLVPGCSDTSGSSVTLGCLVKGYFPEPVTVKWNYGALSSGVRTVSSVLQSGFYSLSSLVTVPSSTWPSQTVICNVAHPASKVDLIKEPSGP,soluble
16,EVQLQESGPGLVKPYQSLSLSCTVTGYSITSDYAWNWIRQFPGNKLEWMGYITYSGTTDYNPSLKSRISITRDTSKNQFFLQLNSVTTEDTATYYCARYYYGYWYFDVWGQGTTLTVSSAKTTAPSVYPLAPVSSVTLGCLVKGYFPEPVTLTWNSGSLSSGVHTFPAVLQSDLYTLSSSVTVTSSTWPSQSITCNVAHPASSTKVDKKIEPR,soluble

row,Sequence,soluble on expression in E. coli
1,EVQLQESGPSLVKPSQTLSLTCSVTGDSVTSDFWSWIRKFPGNKLEYMGYISYSGSTYYHPSLKSRISITRDTSKNQYYLQLNSVTTEDTATYYCASWGGDVWGAGTTVTVSSAKTTAPSVYPLAPVCGDTTGSSVTLGCLVKGYFPEPVTLTWNSGSLSSGVHTFPAVLQSDLYTLSSSVTVTSSTWPSQSITCNVAHPASSTKVDKKI,soluble
2,EVQLQQSGPELVKPGTSVKMSCKASGYTFTDYYMKWVKHSHGKSLEWIGDINPSNGGTLYNQKFKGKATLTVDKSSSTASMQLSRLTSEDSAVYYCSRGDGIHGGFAYWGQGTTVTVSSAKTTAPSVYPLAPVCGDTTGSSVTLGCLVKGYFPEPVTLTWNSGSLSSGVHTFPAVLQSDLYTLSSSVTVTSSTWPSQSITCNVAHPASSTKVDKKIVPQV,soluble
3,EYKPKKGLASCWLSSKSHTLLNEEDFFTKDERIGIRKDYEGATNDDAFFCQRYYRFKNFKEVEGEKTKVCKQPPVREHDFCFAVLLETHRDIKHEELNKRIVYLGGERQPFLMDLMEVSEETFKLNIESSTLTSDEKHYTVVLLSDAMIEPKLLEGVKFASTEVKDFACLLTHVGTRRFYNKKKKREEQNIEEVETALSHQHELYARGSVFYFDTKEQANQFCEDLEKVPNFHTIGYNHAIIIEPTKTKK,not soluble
4,FDGNLKRYLKSEPIPESNDGPVKVVVAENFDEIVNNENKDVLIEFYAPWCGHCKNLEPKYKELGEKLSKDPNIVIAKMDATANDVPSPYEVRGFPTIYFSPANKKLNPKKYEGGRELSDFISYLQREAT,soluble
5,FECGVNSLDEWLKRRALANQHSGASRTFVVADHDSRVYGYYAMAAGAVSHQAATSGVRRNMPDPVPVMVLARLAVDQRAQGIKLGAALLQDAVNRVVNVSHNVGVRALLVHALDDRAKQFYAHYGFKESPQHPM,not soluble
6,FEPDDVTEDVIEWVYSTFDGSYDEQPFGGDWTDPEPFRWPVTRRQAVQALDHFVTNRLTEFGSYQDAMLEDEWAMSHSLLSTSLNLGLLGPAEVIERAITAYEDGDAPLNSVEGFIRQVLGWREFLRHVYRREM,not soluble
7,FIKLITSAKKRVWIQTPYLVPDDSVLAALKVAAASGVDVKIMIPDKPDHPFIYRATQYYGRLLMKENIEILIYNGGFLHAKTMIMDDEVCTVGSANQDIRSYKLNFEANAVLYDKKIIDQLEAIFLEDRKKCTTMTPEVVRDM,not soluble
8,FLHAIIPVHRPLRVGVLTQPVHAEISVADPMLAAVDAAASALSQAGHQLVEVQRPYGDAPFAAFSDILALRSAKIHGQASPLVSWLRDRGGRIGGRRKAKAIAEFLSVRAQLLAAWDVD,not soluble
9,FNKDGKFKIVQFTDVHFKYGNPASDVALERIGEVLDAEHPDLVIFTGDVVYSSPADKGMLQVLGQVERRHLPFVVTFGNHDNEQGKTRAELYDLIRGVAGNLLPDRGASPSPDYILTMKSSADASKDAALLYCMDSHSYSSLKDVDGYAWLTFGQVSWYRAQSAAYTARNGGKPYPALAFFHIPLPEYNEAAANENAILRGTRMEKACAPQLNTGMFAAMKEAGDVMGVFVGHDHDNDYAVMWKNILLAYGRFTGGNTEYNHLPNGARVIVLNEGTRTFETWIRQKGGVVDSTSYPSDYVKDDWRKR,not soluble
10,FNQTYQFTGLLNPDGTVIEANDAALDFGGLDRDEIVGKHFADIPWWSHSDTERDNVRDALERAASGEFVRYETEVRGVDGLGTIDFSVKPVTDQDENVTLLVVEGRDIT,not soluble
11,FNRGGYNFGKSVRHVVDAIGSVAGIRGILKSIR,soluble
12,FPAISEHFTEDYSSHTEQMLDLVLDSTDMRIEDGKRINPAFMFAAMLWYPLCALADKLMDQHNLCHYDAIMEASNIILDDQVRTIAIPRRHTATIREIWQLQLRLPRRNGKRAFRLMELNKFRAGFDFLEMRGEIEGGDTLKLAKWWETFQNAGREMRQAMAADLDGQAPKSGQRRRKTFRKKKSKPKS,not soluble
13,FPDGTLGMDAAVQEDHDNGTQLDSLTLASINTDFAFSLYKELVLKNPDTNIVFSPLSISAALALVSLGAKGNTLEEILEGLKFNLTETSEADIHQGFGHLLQRLNQPKDQVQISTGSALFIEKRQQILTEFQEKAKTLYQAEAFTADFQQPRQAKKLINDYVRKQTQGMIKELVSDLDKRTLMVLVNYIYFKAKWKVPFDPLDTFKSEFYCGKRRPVIVPMMSMEDLTTPYFRDEELSCTVVELKYTGNASALFILPDQGRMQQVEASLQPETLRKWKNSLKPRMIDELHLPKFSISTDYSLEDVLSKLGIREVFSTQADLSAITGTKDLRVSQVVHKAVLDVAETGTEAAAATGVKFVPMSAKLYPLTVYFNRPFLIMIFDTETEIAPFIAKIANPK,soluble
14,FPVETVQIPVNDEYAVHGWLAHGMSGHGAVLLVHSMRSNRLEMLGRARFLNNQGYHVLMIDLQAHGETPGDRITFGARESADVAAAVGYLRSTFPHDRIAAIGATLGAAAIVLANPPLKLDAMILESLHPTFAEAVANRLKLHLGNTGEYLQFLLLPYFSFLLDLPVNQLNPVDRIGNIAIPVLFIAGTLDRHTTQSEVKRLYDAALPPKELWIVEGAGHYNMHTFAGKSYEMQIADFLSTYL,not soluble
15,FQGNPCECPRALHRVCGSDGNTYSNPCMLTCAKHEGNPDLVQVHEGPCDEHDHDF,soluble
